From paper PMC7062751

Experiments:
[1] = molecular target: free SUMO1 (UniProt P63165); assay: pull-down (IP: TEX264-GFP) with immunoblot, quantified band ratio; settings: purified GFP-tagged TEX264 incubated with free SUMO1; parent: 1
[2] = molecular target: TEX264^SIM2*-FLAG (SIM2-mutated variant) (UniProt Q9Y6I9); assay: co-IP; tandem affinity purification from ΔTEX264 HEK293 co-expressing FLAG-tagged TEX264 and HA-SUMO1: FLAG IP under native conditions, then anti-HA IP after boiling in 1% SDS; eluates probed for TOP1
Sequence of UniProt Q9Y6I9 (Q9Y6I9 whole entry, stated change not applied): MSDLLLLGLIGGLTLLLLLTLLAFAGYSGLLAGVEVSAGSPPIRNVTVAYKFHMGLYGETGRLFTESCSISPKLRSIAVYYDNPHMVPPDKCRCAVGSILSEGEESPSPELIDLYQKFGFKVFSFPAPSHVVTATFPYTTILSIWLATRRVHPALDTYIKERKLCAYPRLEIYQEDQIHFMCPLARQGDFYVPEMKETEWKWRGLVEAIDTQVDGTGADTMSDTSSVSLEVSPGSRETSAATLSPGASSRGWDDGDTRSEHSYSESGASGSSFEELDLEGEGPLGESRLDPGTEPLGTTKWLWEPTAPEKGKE

Sequence of UniProt P63165 (P63165 1-97): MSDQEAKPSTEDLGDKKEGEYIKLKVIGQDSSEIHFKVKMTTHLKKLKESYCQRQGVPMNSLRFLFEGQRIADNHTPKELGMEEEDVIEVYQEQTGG

Row | ratio to parent [1] | percent less co-immunoprecipitated than with TEX264^WT [2] | Substance
1 | 0.25 |  | GFP-tagged TEX264, wild type (from UniProt Q9Y6I9) SIM1*
2 | 0 |  | GFP-tagged TEX264, wild type (from UniProt Q9Y6I9) SIM2*
3 |  | 70% | SUMO1-modified TOP1 (HA-SUMO1 conjugated to endogenous TOP1) (from UniProt P11387 1-765; P63165 1-97)
